Experimental data from publication PMC9482650, “Quantitative fragmentomics allow affinity mapping of interactomes” (Nature Communications, 2022).
Each block holds one binder with its values, some of them ahead of it.

Columns and labels:
Experiment in all cases: holdup assay
Design in all cases: key: below the threshold = too weak to quantify, mostly under pKd 3.1 to 4
[1] = target: T1, RAPGEF6, Q8TEU7
T1 sequence (Q8TEU7 525-625, limits assumed, looked up): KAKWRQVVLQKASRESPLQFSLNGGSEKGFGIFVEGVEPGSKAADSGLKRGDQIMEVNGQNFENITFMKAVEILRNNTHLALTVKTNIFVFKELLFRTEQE

[2] = target: DLG2_2, Q15700
Sequence of DLG2_2, Q15700 (Q15700 189-283): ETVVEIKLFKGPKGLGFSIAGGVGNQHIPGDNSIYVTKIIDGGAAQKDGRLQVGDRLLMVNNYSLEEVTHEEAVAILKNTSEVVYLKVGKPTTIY

[3] = target: T2, SNTG1, Q9NSN8
T2 sequence (Q9NSN8 52-150, limits assumed, looked up): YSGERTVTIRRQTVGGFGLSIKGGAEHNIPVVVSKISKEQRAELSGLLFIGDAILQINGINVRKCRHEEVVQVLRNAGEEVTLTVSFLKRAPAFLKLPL

[4] = target: DLG1_1, Q12959
[5] = target: T3, ARHGEF11, O15085
T3 sequence (O15085 42-136, limits assumed, looked up): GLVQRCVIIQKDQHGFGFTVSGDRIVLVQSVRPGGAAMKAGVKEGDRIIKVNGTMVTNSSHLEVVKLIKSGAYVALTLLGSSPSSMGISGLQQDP

[6] = target: PDZRN4_1, Q6ZMN7
Sequence of PDZRN4_1, Q6ZMN7 (Q6ZMN7 213-318): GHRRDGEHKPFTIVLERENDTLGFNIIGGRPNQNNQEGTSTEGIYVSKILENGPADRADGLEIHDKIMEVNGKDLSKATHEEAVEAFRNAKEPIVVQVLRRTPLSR

[7] = target: T4, SNTG2, Q9NY99
T4 sequence (Q9NY99 68-166, limits assumed, looked up): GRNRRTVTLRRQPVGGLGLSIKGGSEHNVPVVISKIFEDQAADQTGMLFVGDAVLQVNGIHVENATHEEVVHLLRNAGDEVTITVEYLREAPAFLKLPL

[8] = target: T5, DFNB31_3, Q9P202
T5 sequence (Q9P202 811-907, limits assumed, looked up): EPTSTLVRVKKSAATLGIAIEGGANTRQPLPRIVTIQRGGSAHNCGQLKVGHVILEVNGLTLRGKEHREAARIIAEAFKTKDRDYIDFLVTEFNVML

[9] = target: Inadl_2, Q8NI35
Sequence of Inadl_2, Q8NI35 (Q8NI35 238-335): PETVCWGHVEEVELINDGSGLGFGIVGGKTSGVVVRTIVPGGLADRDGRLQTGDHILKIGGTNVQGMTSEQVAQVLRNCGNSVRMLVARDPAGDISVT

[10] = target: T6, LIN7C, Q9NUP9
T6 sequence (Q9NUP9 88-185, limits assumed, looked up): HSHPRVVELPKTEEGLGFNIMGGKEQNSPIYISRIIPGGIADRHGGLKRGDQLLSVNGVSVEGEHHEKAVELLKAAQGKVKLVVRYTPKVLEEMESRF

[11] = target: HTRA1, Q92743
Sequence of HTRA1, Q92743 (Q92743 360-477): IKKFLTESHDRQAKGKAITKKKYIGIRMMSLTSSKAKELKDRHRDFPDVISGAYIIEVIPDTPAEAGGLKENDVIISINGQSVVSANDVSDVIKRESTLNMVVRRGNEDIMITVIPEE

[12] = target: GRIP2_4, Q9C0E4
Sequence of GRIP2_4, Q9C0E4 (Q9C0E4 446-548): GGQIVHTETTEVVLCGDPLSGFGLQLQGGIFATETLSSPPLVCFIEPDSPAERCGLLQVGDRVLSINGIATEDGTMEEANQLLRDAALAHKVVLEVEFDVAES

[13] = target: FRMPD2_2, Q68DX3
Sequence of FRMPD2_2, Q68DX3 (Q68DX3 944-1038): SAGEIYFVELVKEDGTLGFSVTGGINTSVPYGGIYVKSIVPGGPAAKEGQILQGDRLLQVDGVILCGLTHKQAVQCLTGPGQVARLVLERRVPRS

[14] = target: MAGI2_3, Q86UL8
Sequence of MAGI2_3, Q86UL8 (Q86UL8 600-682): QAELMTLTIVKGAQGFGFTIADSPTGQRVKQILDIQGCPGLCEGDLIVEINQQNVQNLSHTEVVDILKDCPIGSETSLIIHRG

[15] = target: T7, DFNB31_1, Q9P202
T7 sequence (Q9P202 135-233, limits assumed, looked up): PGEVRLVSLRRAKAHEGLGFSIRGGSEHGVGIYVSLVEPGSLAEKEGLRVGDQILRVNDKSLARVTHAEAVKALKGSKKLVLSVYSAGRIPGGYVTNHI

[16] = target: DLG5_1, Q8TDM6
Sequence of DLG5_1, Q8TDM6 (Q8TDM6 617-713): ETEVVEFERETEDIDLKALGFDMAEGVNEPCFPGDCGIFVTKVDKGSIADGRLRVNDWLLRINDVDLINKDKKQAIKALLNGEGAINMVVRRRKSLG

[17] = target: Inadl_8, Q8NI35
Sequence of Inadl_8, Q8NI35 (Q8NI35 1425-1530): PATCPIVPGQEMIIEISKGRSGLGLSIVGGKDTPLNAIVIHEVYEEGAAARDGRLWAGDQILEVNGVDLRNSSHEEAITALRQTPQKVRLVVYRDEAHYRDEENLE

[18] = target: T8, TIAM2, Q8IVF5
T8 sequence (Q8IVF5 885-986, limits assumed, looked up): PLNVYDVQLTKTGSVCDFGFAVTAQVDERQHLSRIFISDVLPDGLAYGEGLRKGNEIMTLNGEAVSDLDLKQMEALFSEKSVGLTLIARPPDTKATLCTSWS

[19] = target: T9, DVL3, Q92997
T9 sequence (Q92997 244-331, limits assumed, looked up): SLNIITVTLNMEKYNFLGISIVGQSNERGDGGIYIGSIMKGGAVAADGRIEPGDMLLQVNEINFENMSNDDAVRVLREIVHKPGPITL

[20] = target: T10, GRIP1_3, Q9Y3R0
T10 sequence (Q9Y3R0 247-346, limits assumed, looked up): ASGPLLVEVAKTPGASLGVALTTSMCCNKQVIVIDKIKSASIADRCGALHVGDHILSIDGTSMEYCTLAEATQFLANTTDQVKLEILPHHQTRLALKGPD

[21] = target: T11, RHPN1, Q8TCX5
T11 sequence (Q8TCX5 508-602, limits assumed, looked up): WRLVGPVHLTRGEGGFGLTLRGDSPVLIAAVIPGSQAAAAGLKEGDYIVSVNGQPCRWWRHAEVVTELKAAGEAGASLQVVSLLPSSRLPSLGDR

[22] = target: LIMK2, P53671
Sequence of LIMK2, P53671 (P53671 143-248): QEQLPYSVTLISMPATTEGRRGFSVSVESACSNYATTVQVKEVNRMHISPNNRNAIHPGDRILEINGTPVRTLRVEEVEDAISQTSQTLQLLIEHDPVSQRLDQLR

[23] = target: DLG4_2, P78352
Sequence of DLG4_2, P78352 (P78352 155-259): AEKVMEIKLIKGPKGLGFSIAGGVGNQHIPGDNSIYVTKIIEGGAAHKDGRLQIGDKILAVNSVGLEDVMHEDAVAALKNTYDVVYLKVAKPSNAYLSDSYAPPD

[24] = target: IL16_1, Q14005
Sequence of IL16_1, Q14005 (Q14005 210-306): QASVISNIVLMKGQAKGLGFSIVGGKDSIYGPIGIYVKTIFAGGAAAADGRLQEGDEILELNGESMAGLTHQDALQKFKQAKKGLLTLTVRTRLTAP

[25] = target: GRIP2_3, Q9C0E4
Sequence of GRIP2_3, Q9C0E4 (Q9C0E4 238-339): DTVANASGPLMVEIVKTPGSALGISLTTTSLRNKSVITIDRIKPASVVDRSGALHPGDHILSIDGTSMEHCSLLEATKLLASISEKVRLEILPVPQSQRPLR

[26] = target: DLG1_3, Q12959
[27] = target: PARD3_3, Q8TEW0
Sequence of PARD3_3, Q8TEW0 (Q8TEW0 582-685): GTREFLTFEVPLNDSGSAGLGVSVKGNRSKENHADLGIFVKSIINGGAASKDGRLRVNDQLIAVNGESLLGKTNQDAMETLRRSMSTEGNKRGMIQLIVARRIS

[28] = plain residues with an end cap or a label only (N-terminal biotin on a linker: ttds)
[29] = plain residues with an end cap or a label only (N-terminal biotin on a linker: ahx)

Binder: NPDALPETLV [ARHGAP6, O43182]
pKd [1, 28]: below the threshold | pKd [2, 28]: 4.23 | pKd [3, 28]: 5.33 | pKd [4, 28]: 4.39 | pKd [5, 28]: 4.09 | pKd [6, 28]: 4.11 | pKd [7, 28]: 4.95 | pKd [8, 28]: 4.1 | pKd [9, 28]: 3.93 | pKd [10, 28]: 4.31 | pKd [11, 28]: 4.13 | pKd [12, 28]: below the threshold | pKd [13, 28]: 4.99 | pKd [14, 28]: 3.89 | pKd [15, 28]: 4.1 | pKd [16, 28]: below the threshold | pKd [17, 28]: below the threshold | pKd [18, 28]: below the threshold | pKd [19, 28]: below the threshold | pKd [20, 28]: below the threshold | pKd [21, 28]: 4.61 | pKd [22, 28]: below the threshold | pKd [23, 28]: 4.42 | pKd [24, 28]: 3.87 | pKd [25, 28]: below the threshold | pKd [26, 28]: 3.5 | pKd [27, 28]: 3.85

Binder: GRLLGLETNV [ARHGEF26, Q96DR7]
pKd [1, 28]: below the threshold | pKd [2, 28]: 4.88 | pKd [3, 28]: 4.95 | pKd [4, 28]: 4.76 | pKd [5, 28]: below the threshold | pKd [6, 28]: 3.48 | pKd [7, 28]: 4.55 | pKd [8, 28]: below the threshold | pKd [9, 28]: below the threshold | pKd [10, 28]: 3.72 | pKd [11, 28]: below the threshold | pKd [12, 28]: below the threshold | pKd [13, 28]: 4.22 | pKd [14, 28]: 3.9 | pKd [15, 28]: 3.91 | pKd [16, 28]: below the threshold | pKd [17, 28]: below the threshold | pKd [18, 28]: below the threshold | pKd [19, 28]: below the threshold | pKd [20, 28]: below the threshold | pKd [21, 28]: 4.48 | pKd [22, 28]: below the threshold | pKd [23, 28]: 4.85 | pKd [24, 28]: 3.78 | pKd [25, 28]: below the threshold | pKd [26, 28]: 4.92 | pKd [27, 28]: below the threshold

The remaining lines, values ahead:

pKd [1, 28]: below the threshold | pKd [2, 28]: 3.96 | pKd [3, 28]: 3.82 | pKd [4, 28]: 4.04 | pKd [5, 28]: below the threshold | pKd [6, 28]: 4.18 | pKd [7, 28]: 3.63 | pKd [8, 28]: below the threshold | pKd [9, 28]: below the threshold | pKd [10, 28]: below the threshold | pKd [11, 28]: below the threshold | pKd [12, 28]: below the threshold | pKd [13, 28]: below the threshold | pKd [14, 28]: below the threshold | pKd [15, 28]: 4.02 | pKd [16, 28]: below the threshold | pKd [17, 28]: below the threshold | pKd [18, 28]: below the threshold | pKd [19, 28]: below the threshold | pKd [20, 28]: 3.51 | pKd [21, 28]: 3.5 | pKd [22, 28]: below the threshold | pKd [23, 28]: 4.56 | pKd [24, 28]: below the threshold | pKd [25, 28]: below the threshold | pKd [26, 28]: 4.08 | pKd [27, 28]: below the threshold
Binder: QRPYRRESEI [KCNJ12, Q14500]

pKd [1, 29]: below the threshold | pKd [2, 29]: below the threshold | pKd [3, 29]: 4.64 | pKd [4, 29]: 4.29 | pKd [5, 29]: below the threshold | pKd [6, 29]: 3.63 | pKd [7, 29]: below the threshold | pKd [8, 29]: below the threshold | pKd [9, 29]: below the threshold | pKd [10, 29]: below the threshold | pKd [11, 29]: 4.6 | pKd [12, 29]: below the threshold | pKd [13, 29]: 4.25 | pKd [14, 29]: below the threshold | pKd [15, 29]: 4.28 | pKd [16, 29]: below the threshold | pKd [17, 29]: 3.87 | pKd [18, 29]: below the threshold | pKd [19, 29]: 3.96 | pKd [20, 29]: below the threshold | pKd [21, 29]: 3.8 | pKd [22, 29]: below the threshold | pKd [23, 29]: 4.81 | pKd [24, 29]: 4.1 | pKd [25, 29]: below the threshold | pKd [26, 29]: below the threshold | pKd [27, 29]: 4.05
Binder: AKPQPVDSWV [ARVCF, O00192]
